Laboratory results from paper PMC8165646.

Target: HA-tagged mutant (Leu15) AP2σ2 subunit (human) (human) (UniProt P53680)
Assay: co-IP; lysates of HEK293 cells stably expressing FLAG-CaSR with HA-tagged WT or Leu15 AP2σ2; anti-HA-sepharose beads 2 h; blots with anti-AP2α, anti-AP2β2 and anti-AP2μ2 for the endogenous subunits; lysis buffer 0.5% NP40, 135 mM NaCl, 20 mM Tris pH 7.5, 1 mM EDTA

reduction of the subunit in the HA-AP2σ2 immunoprecipitate, Leu15 cells against WT cells: > 50%
Substance: AP2α subunit, endogenous in HEK293 (from UniProt O95782 1-977) (natural protein)
